B1: SDGF-TB1G1 (TB1G1 displayed on 293F cells) [designed binder] / Biotinylated His-Avi-TEAD1(194–411) [modified: biotin (BirA-500 kit); biotin (BirA-500 kit)] [not stated] (parent complex)
chain 1: PDEYIERAKECCKKGDIQCCLRYFEESGDPNVMLICLFCP
chain 2: RSIGTTKLRLVEFSAFLEQQRDPDSYNKHLFVHIGHANHSYSDPLLESVDIRQIYDKFPEKKGGLKELFGKGPQNAFFLVKFWADLNCNIQDDAGAFYGVTSQYESSENMTVTCSTKVCSFGKQVVEKVETEYARFENGRFVYRINRSPMCEYMINFIHKLKHLPEKYMMNSVLENFTILLVVTNRDTQETLLCMACVFEVSNSEHGAQHHIYRLVKD

Variants of: B1
Assay: mammalian (293F) surface display of a site-saturation mutagenesis library (every non-Cys single substitution), FACS sorting on biotinylated TEAD1 YBD, two sorting rounds, Illumina sequencing with perfect-match mapping; 20 nM biotinylated TEAD, monovalent 2-step stain (TEAD alone 30 min at 4 °C, dilute, pellet, then 20 nM streptavidin-Alexa Fluor 647), flow sorting on a BD Aria

Variant	enrichment
chain 1 PDDYIERAKECCKKGDIQCCLRYFEESGDPNVMLICLFCP [chain 1 E3D]	0.801 log2 (fold change of variant abundance after two TEAD sorts vs input, normalised to TB1G1)
chain 1 PDVYIERAKECCKKGDIQCCLRYFEESGDPNVMLICLFCP [chain 1 E3V]	-1.39 log2 (fold change of variant abundance after two TEAD sorts vs input, normalised to TB1G1)
chain 1 PDAYIERAKECCKKGDIQCCLRYFEESGDPNVMLICLFCP [chain 1 E3A]	-2.02 log2 (fold change of variant abundance after two TEAD sorts vs input, normalised to TB1G1)
chain 1 PDGYIERAKECCKKGDIQCCLRYFEESGDPNVMLICLFCP [chain 1 E3G]	-0.623 log2 (fold change of variant abundance after two TEAD sorts vs input, normalised to TB1G1)
chain 1 PDHYIERAKECCKKGDIQCCLRYFEESGDPNVMLICLFCP [chain 1 E3H]	-0.307 log2 (fold change of variant abundance after two TEAD sorts vs input, normalised to TB1G1)
chain 1 PDRYIERAKECCKKGDIQCCLRYFEESGDPNVMLICLFCP [chain 1 E3R]	-1.81 log2 (fold change of variant abundance after two TEAD sorts vs input, normalised to TB1G1)
chain 1 PDENIERAKECCKKGDIQCCLRYFEESGDPNVMLICLFCP [chain 1 Y4N]	0.0419 log2 (fold change of variant abundance after two TEAD sorts vs input, normalised to TB1G1)
chain 1 PDEAIERAKECCKKGDIQCCLRYFEESGDPNVMLICLFCP [chain 1 Y4A]	0.259 log2 (fold change of variant abundance after two TEAD sorts vs input, normalised to TB1G1)
chain 1 PDETIERAKECCKKGDIQCCLRYFEESGDPNVMLICLFCP [chain 1 Y4T]	-0.869 log2 (fold change of variant abundance after two TEAD sorts vs input, normalised to TB1G1)
chain 1 PDEHIERAKECCKKGDIQCCLRYFEESGDPNVMLICLFCP [chain 1 Y4H]	-1.9 log2 (fold change of variant abundance after two TEAD sorts vs input, normalised to TB1G1)
chain 1 PDEMIERAKECCKKGDIQCCLRYFEESGDPNVMLICLFCP [chain 1 Y4M]	-0.684 log2 (fold change of variant abundance after two TEAD sorts vs input, normalised to TB1G1)
chain 1 PDEFIERAKECCKKGDIQCCLRYFEESGDPNVMLICLFCP [chain 1 Y4F]	0.668 log2 (fold change of variant abundance after two TEAD sorts vs input, normalised to TB1G1)
chain 1 PDESIERAKECCKKGDIQCCLRYFEESGDPNVMLICLFCP [chain 1 Y4S]	-0.738 log2 (fold change of variant abundance after two TEAD sorts vs input, normalised to TB1G1)
chain 1 PDEEIERAKECCKKGDIQCCLRYFEESGDPNVMLICLFCP [chain 1 Y4E]	-6.52 log2 (fold change of variant abundance after two TEAD sorts vs input, normalised to TB1G1)
chain 1 PDEIIERAKECCKKGDIQCCLRYFEESGDPNVMLICLFCP [chain 1 Y4I]	-0.405 log2 (fold change of variant abundance after two TEAD sorts vs input, normalised to TB1G1)
chain 1 PDEYIERSKECCKKGDIQCCLRYFEESGDPNVMLICLFCP [chain 1 A8S]	-2.79 log2 (fold change of variant abundance after two TEAD sorts vs input, normalised to TB1G1)
chain 1 PDEYIERQKECCKKGDIQCCLRYFEESGDPNVMLICLFCP [chain 1 A8Q]	-6 log2 (fold change of variant abundance after two TEAD sorts vs input, normalised to TB1G1)
chain 1 PDEYIERYKECCKKGDIQCCLRYFEESGDPNVMLICLFCP [chain 1 A8Y]	-3.35 log2 (fold change of variant abundance after two TEAD sorts vs input, normalised to TB1G1)
chain 1 PDEYIERGKECCKKGDIQCCLRYFEESGDPNVMLICLFCP [chain 1 A8G]	-4.11 log2 (fold change of variant abundance after two TEAD sorts vs input, normalised to TB1G1)

Variant	enrichment
chain 1 PDEYIERRKECCKKGDIQCCLRYFEESGDPNVMLICLFCP [chain 1 A8R]	-5.84 log2 (fold change of variant abundance after two TEAD sorts vs input, normalised to TB1G1)
chain 1 PDEYIERKKECCKKGDIQCCLRYFEESGDPNVMLICLFCP [chain 1 A8K]	-4.73 log2 (fold change of variant abundance after two TEAD sorts vs input, normalised to TB1G1)
chain 1 PSEYIERAKECCKKGDIQCCLRYFEESGDPNVMLICLFCP [chain 1 D2S]	-1.01 log2 (fold change of variant abundance after two TEAD sorts vs input, normalised to TB1G1)
chain 1 PVEYIERAKECCKKGDIQCCLRYFEESGDPNVMLICLFCP [chain 1 D2V]	-2.34 log2 (fold change of variant abundance after two TEAD sorts vs input, normalised to TB1G1)
chain 1 PLEYIERAKECCKKGDIQCCLRYFEESGDPNVMLICLFCP [chain 1 D2L]	-3.53 log2 (fold change of variant abundance after two TEAD sorts vs input, normalised to TB1G1)
chain 1 PQEYIERAKECCKKGDIQCCLRYFEESGDPNVMLICLFCP [chain 1 D2Q]	-0.201 log2 (fold change of variant abundance after two TEAD sorts vs input, normalised to TB1G1)
chain 1 PREYIERAKECCKKGDIQCCLRYFEESGDPNVMLICLFCP [chain 1 D2R]	-7.12 log2 (fold change of variant abundance after two TEAD sorts vs input, normalised to TB1G1)
chain 1 PEEYIERAKECCKKGDIQCCLRYFEESGDPNVMLICLFCP [chain 1 D2E]	1.16 log2 (fold change of variant abundance after two TEAD sorts vs input, normalised to TB1G1)
chain 1 PYEYIERAKECCKKGDIQCCLRYFEESGDPNVMLICLFCP [chain 1 D2Y]	-1.63 log2 (fold change of variant abundance after two TEAD sorts vs input, normalised to TB1G1)
chain 1 PPEYIERAKECCKKGDIQCCLRYFEESGDPNVMLICLFCP [chain 1 D2P]	-2.11 log2 (fold change of variant abundance after two TEAD sorts vs input, normalised to TB1G1)
chain 1 PDEYIERASECCKKGDIQCCLRYFEESGDPNVMLICLFCP [chain 1 K9S]	-0.907 log2 (fold change of variant abundance after two TEAD sorts vs input, normalised to TB1G1)
chain 1 PDEYIERATECCKKGDIQCCLRYFEESGDPNVMLICLFCP [chain 1 K9T]	2.68 log2 (fold change of variant abundance after two TEAD sorts vs input, normalised to TB1G1)
chain 1 PDEYIERAQECCKKGDIQCCLRYFEESGDPNVMLICLFCP [chain 1 K9Q]	1.1 log2 (fold change of variant abundance after two TEAD sorts vs input, normalised to TB1G1)
chain 1 PDEYIERANECCKKGDIQCCLRYFEESGDPNVMLICLFCP [chain 1 K9N]	3.31 log2 (fold change of variant abundance after two TEAD sorts vs input, normalised to TB1G1)
chain 1 PDEYIERAWECCKKGDIQCCLRYFEESGDPNVMLICLFCP [chain 1 K9W]	-4.41 log2 (fold change of variant abundance after two TEAD sorts vs input, normalised to TB1G1)
chain 1 PDEYIERAVECCKKGDIQCCLRYFEESGDPNVMLICLFCP [chain 1 K9V]	-8.88 log2 (fold change of variant abundance after two TEAD sorts vs input, normalised to TB1G1)
chain 1 PDEYIERAFECCKKGDIQCCLRYFEESGDPNVMLICLFCP [chain 1 K9F]	-3.52 log2 (fold change of variant abundance after two TEAD sorts vs input, normalised to TB1G1)
chain 1 PDEYIERAIECCKKGDIQCCLRYFEESGDPNVMLICLFCP [chain 1 K9I]	-3.03 log2 (fold change of variant abundance after two TEAD sorts vs input, normalised to TB1G1)
chain 1 PDEYIERARECCKKGDIQCCLRYFEESGDPNVMLICLFCP [chain 1 K9R]	-1.3 log2 (fold change of variant abundance after two TEAD sorts vs input, normalised to TB1G1)

Variants of: B1
Assay: not given

ratio to parent	Variant
~0.01	chain 1 PDEYIERAKESSKKGDIQSSLRYFEESGDPNVMLISLFSP [chain 1 C11S, chain 1 C12S, chain 1 C19S, chain 1 C20S, chain 1 C36S, chain 1 C39S]
